According to patent US20040253243, “Aptamer therapeutics useful in ocular pharmacotherapy” (published 2004):
Like-named read-outs stand apart in the source and are kept apart here.

T1: TGF-beta2 (Rattus, UniProt Q07257 Q07257:331-442)
T1 sequence: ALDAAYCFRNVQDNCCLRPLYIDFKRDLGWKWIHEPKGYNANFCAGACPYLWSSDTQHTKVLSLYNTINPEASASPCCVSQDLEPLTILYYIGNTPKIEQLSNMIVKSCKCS


Experiments:
[1] = biological target: T2, PDGF-AB (Homo sapiens, UniProt P04085;P01127 P04085:87-211,P01127:82-190); experiment: p237 labels ARC125 as SEQ 16, Table 3 as SEQ 17
T2 sequence (P01127 82-190, chain 2 of 2, other chains not shown): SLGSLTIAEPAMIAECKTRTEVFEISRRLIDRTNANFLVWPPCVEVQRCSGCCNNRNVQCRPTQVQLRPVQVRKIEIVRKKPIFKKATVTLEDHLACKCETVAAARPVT

[2] = biological target: T3, PDGF-BB (Homo sapiens, UniProt P01127 P01127:82-190); experiment: p237 labels ARC125 as SEQ 16, Table 3 as SEQ 17; conditions: chain copies: 2 (inferred)
T3 sequence (P01127 82-190, one chain of several): as the sequence (P01127 82-190, chain 2 of 2, other chains not shown) above

[3] = biological target: T2, PDGF-AB
[4] = biological target: T3, PDGF-BB
[5] = biological target: T1, TGF-beta2; experiment: filter; values in figure only; conditions: chain copies: 2 (inferred)
Description: Dissociation constants for the binding of aptamers to purified human or rodent TGFβ-2 protein were determined by nitrocellulose-filter partitioning using ³²P-labeled RNA. In vitro transcribed RNA was treated with calf-intestinal alkaline phophatase (New England Biolabs) to remove 5′-triphosphates, then radio-labeled by incubation with γ-³²P-ATP and T4 polynucleotide kinase (New England Biolabs). Unincorporated label was removed by gel-filtration, and the RNAs were further purified by polyacrylamide gel electrophoresis (PAGE). Purified ³²P-labeled aptamer in water was refolded just prior to use by heating for 3 min at 95° C., followed by a 10 minute room-temperature incubation in binding buffer (50 mM Hepes, pH 7.4, 1 mM MgCl₂, 1 mM CaCl₂, 3 mM KCl, 140 mM NaCl, 0.1 mg/ml BSA, 0.01 mg/ml tRNA). The binding reactions (100 μL) were initiated by the addition of aptamer (≦0.1 nM) to excess TGFβ-2 protein (0.2-100 nM), followed by 10-30 minute equilibration at room temperature.
Nitrocellulose-filter partitioning was performed on Minifold® I, 96-well Dot-Blot manifolds (Schleicher & Schuell). Protein-bound aptamer and residual free aptamer were captured, respectively, on pre-wetted Protran nitrocellulose (Schleicher & Schuell) and Hybond-P polyvinylidene difluoride (Amersham Biosciences) filters by vacuum aspiration, and quantified by PhosphorImager (Amersham Biosciences). […]

Binder | Kd [1] [nM] | Kd [2] [nM] | Kd [3] [nM] | Kd [4] [nM] | binding result [5]
TACTCAGGGCACTGCAAGCAATTGTGGTCCCAATGGGCTGAGTA (ssDNA, 3'-3'-dT cap) [ARC125] | 0.1 | 0.1 | – | – | –
TGGGAGGGCGCGTTCTTCGTGGTTACTTTTAGTCCCG (ssDNA, 3'-3'-dT cap) [ARC123] | – | – | 0.1 | 0.1 | –
CACAGGCTACGGCACGTAGAGCATCACCATGATCCTGTG (ssDNA, 3'-3'-dT cap) [ARC124] | – | – | 0.1 | 0.1 | –
GGAGGUUAUUACAGAGUCUGUAUAGCUGUACUCC (ssRNA, 2'-F all C and U, 2'-OH purines, 3'-inverted T (3T)) [ARC77] | – | – | – | – | binds
